Reference: US20160264650A1 (Regeneron, published 2016)
Substitutions are numbered along the chain they refer to. Read-outs that look alike come from different tables or passages of the source.

Assays:
[1] = target: T1, Clostridium difficile toxin A, soluble full-length (TechLab) (Clostridium difficile, UniProt P16154 1-2710); assay: SPR Biacore T200, 37C, mAb capture
T1 construct: also called tcdA

[2] = target: T2, Clostridium difficile toxin B, soluble full-length (TechLab) (Clostridium difficile, UniProt P18177 2-2366); assay: SPR Biacore T200, 37C, mAb capture
T2 construct: also called tcdB
T2 sequence (P18177 2-2366 limits assumed): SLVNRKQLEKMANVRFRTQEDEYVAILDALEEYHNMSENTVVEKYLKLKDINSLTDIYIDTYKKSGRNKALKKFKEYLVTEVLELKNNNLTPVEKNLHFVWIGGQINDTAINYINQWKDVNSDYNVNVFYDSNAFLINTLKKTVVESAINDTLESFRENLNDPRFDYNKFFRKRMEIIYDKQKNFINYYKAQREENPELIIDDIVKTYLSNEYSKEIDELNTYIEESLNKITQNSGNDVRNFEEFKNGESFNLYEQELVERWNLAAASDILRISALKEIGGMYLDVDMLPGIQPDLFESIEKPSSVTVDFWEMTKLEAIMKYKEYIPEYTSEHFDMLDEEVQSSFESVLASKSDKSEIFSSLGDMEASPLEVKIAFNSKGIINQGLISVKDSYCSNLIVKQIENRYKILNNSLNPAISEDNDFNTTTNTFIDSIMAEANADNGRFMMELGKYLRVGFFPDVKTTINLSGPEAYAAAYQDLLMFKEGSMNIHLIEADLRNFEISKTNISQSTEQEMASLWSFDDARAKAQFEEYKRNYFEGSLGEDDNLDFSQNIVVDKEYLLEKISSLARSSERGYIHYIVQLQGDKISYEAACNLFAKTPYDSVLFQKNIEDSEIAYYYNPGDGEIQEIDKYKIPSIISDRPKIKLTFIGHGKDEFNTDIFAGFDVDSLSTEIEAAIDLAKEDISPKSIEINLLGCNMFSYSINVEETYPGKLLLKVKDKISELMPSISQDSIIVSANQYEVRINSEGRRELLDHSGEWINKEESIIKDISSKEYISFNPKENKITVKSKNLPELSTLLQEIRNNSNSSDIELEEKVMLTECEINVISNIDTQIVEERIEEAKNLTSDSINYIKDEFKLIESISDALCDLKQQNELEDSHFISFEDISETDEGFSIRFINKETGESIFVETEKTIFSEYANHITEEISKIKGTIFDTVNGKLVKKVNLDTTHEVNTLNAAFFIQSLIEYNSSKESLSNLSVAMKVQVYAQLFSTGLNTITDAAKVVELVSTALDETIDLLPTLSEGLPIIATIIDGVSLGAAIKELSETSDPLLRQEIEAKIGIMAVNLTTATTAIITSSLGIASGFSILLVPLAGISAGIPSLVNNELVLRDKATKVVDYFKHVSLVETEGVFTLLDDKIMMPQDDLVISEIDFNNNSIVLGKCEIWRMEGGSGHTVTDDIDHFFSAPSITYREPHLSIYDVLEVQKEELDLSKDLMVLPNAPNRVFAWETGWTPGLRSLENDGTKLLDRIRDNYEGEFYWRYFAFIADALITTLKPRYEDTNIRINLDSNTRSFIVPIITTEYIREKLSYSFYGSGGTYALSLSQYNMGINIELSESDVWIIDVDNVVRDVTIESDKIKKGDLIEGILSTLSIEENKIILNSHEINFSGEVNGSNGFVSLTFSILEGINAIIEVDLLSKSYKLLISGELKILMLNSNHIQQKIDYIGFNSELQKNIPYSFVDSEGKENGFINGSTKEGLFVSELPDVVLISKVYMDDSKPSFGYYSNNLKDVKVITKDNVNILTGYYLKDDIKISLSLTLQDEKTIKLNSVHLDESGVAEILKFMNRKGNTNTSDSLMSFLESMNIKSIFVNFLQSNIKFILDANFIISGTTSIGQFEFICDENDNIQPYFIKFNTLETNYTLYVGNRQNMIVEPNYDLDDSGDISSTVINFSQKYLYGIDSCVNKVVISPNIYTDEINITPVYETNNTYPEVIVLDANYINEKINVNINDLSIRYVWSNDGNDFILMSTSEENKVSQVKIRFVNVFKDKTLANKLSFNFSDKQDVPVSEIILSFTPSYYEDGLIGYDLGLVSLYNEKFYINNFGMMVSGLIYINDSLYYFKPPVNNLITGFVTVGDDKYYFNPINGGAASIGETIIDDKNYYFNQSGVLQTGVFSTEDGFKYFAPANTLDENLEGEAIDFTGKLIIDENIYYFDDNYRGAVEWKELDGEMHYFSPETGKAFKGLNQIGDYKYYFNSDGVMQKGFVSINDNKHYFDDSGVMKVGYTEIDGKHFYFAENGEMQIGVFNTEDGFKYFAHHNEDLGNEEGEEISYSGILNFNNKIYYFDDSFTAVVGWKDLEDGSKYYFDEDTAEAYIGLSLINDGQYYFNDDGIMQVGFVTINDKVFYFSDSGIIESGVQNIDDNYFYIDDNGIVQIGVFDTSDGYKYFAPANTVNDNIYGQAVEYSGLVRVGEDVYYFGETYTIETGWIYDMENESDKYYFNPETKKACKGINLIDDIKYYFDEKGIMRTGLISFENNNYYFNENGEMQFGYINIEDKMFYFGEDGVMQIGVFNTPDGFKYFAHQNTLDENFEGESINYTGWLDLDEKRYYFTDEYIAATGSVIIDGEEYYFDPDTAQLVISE

[3] = target: T1, Clostridium difficile toxin A, soluble …; assay: SPR Biacore T200, 37C, mAb capture; remark: listed apart in the source
[4] = target: T2, Clostridium difficile toxin B, soluble …; assay: cell-based or functional assay

B1: H1H3067N (antibody, V domains shown)
VH: QIQLVESGGGVVQPGRSLRLSCVASGFTLSGHGMHWVRQAPGKGLEWVAFISFDGGHQDYTDAAEGRFTISRDNSKNTLYLEMVSLRPADTAIYYCVKGSDSSRGFGYWGRGILVTVSS
VL: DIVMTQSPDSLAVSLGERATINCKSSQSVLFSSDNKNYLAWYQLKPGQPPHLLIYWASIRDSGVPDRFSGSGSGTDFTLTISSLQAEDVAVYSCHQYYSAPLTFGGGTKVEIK
Q: Which results are given for B1?
A: Kd [1]: 0.24 nM; T½ [1]: 5.58 h; koff [1]: 3.45e-05 s⁻¹; kon [1]: 144000 M⁻¹ s⁻¹

B2: H1H3355P (antibody, V domains shown)
VH: EVQLVESGGGLVQPGRSLRLSCTASGFVFEDYAMHWVRQAPGKGLEWVSGISWNSGRIGYTDSVKGRFTVSRDNAKNSLYLQMNSLTTEDTALYYCAKDKSPSKWNLLGMDVWGQGTTVTVSS
VL: AIQMTQSPSSLSASVGDRVTITCRASQDIRNDLGWFQQKPGRAPNLLIFGASSLQSGVPSRFSGSGSGTDFTLTISGLQPEDFSTYYCLQDYTYPFTFGPGTKVDIKR
Q: Does B2 bind [2]?
A: no binding (tested: toxin at 5 to 10 nM)

B3: H1H3134N (antibody, V domains shown)
VH: QVQLVESGGDVVQPGRSLRLSCAASGFTFSGHGMHWVRQAPGKGLEWVALILYDGSSEDYTDSVKGRFTVSRDNSKNTLYLQMNSLRAEDTAVYYCARGSILNRPFDYWGQGTLVTVSS
VL: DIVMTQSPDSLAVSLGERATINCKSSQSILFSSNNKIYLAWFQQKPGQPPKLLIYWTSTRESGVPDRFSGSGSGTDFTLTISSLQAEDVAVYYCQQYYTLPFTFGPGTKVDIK
Q: Which Kd [1] does the source give for B3 here?
A: 0.0278 nM

Q: What about the “T½” value [1] of the same binder?
A: 68.3 h

Q: What about the koff [1] of the same binder?
A: 2.82e-06 s⁻¹

Q: What about the kon [1] of the same binder?
A: 102000 M⁻¹ s⁻¹

B4: H1H3350P (antibody, V domains shown)
VH: QVQLVESGGGLVKPGGSLTLSCVASGFTFTDYYISWIRQAPGKGLEWISYIGTGGAAKYYADSVKGRFTVSRDNAKNSLYLLMNNLRAEDTAVYYCARDLGIFDLWGQGTLVTVSS
VL: EIVMTQSPATLSVSPGERATLSCRASQSVSSSLAWYHQKPGQAPRLLIHGVSTRATGIPARFSGTGSGTEFTLTISSLQSEDFAVYYCQQYHNWPPYTFGQGTKLEIKR
Q: Which Kd [3] does the source give for B4 here?
A: 0.0101 nM

Q: And the “T½” value [3]?
A: 47.6 h

Q: What about the koff [3] of the same binder?
A: 4.05e-06 s⁻¹

Q: What about the kon [3] of the same binder?
A: 402000 M⁻¹ s⁻¹

B5: H1H3117N (antibody, V domains shown)
VH: EVQLLESGGGLAQPGGSLRLSCAASGFNFGTHDMSWVRQAPGKGLEWVSGLTSTGGSASSADSVKGRFTISRDNSKNILYLQMNSLRAEDTAVYYCAKTFNWNSYFDYWGQGTLVTVSS
VL: EIVLTQSPGTLSLSPGERATLSCRASQSISTYYLAWYQQKPDQPPRLLIYGTSSRATGIPDRFSGSGSGTDFTLTISRLDPEDFAVYYCQQYGNSLYTFGQGTKLEIK
Q: What does the source list for B5?
A: Kd [3]: 0.0793 nM; T½ [3]: 5.53 h; koff [3]: 3.84e-05 s⁻¹; kon [3]: 438000 M⁻¹ s⁻¹

B6: H1H3394P (antibody, V domains shown)
VH: QVQLVQSGAEVQKPGASVKVSCKASGYTFTDYYIHWVRQAPGQGLEWMGWINPKTGGTNYAPKFQGRVTMTRDSSIITAYMDLTRLTSDDTAVFYCARRGYNSRWSVFDYWGQGTLVTVSS
VL: EIVLTQSPGTLSLSPGERATLSCRASQSVYSNYLAWYQQKRGLAPRLLIYGASSRATGIPDRFSGSGSGTDFTLTISRLEPEDFAVYYCQQHGGSPVTFGGGTKVEIKR
Q: Which results are given for B6?
A: Kd [2]: 0.333 nM; T½ [2]: 1.2 h; koff [2]: 0.000162 s⁻¹; kon [2]: 486000 M⁻¹ s⁻¹

B7: H1H3411P (antibody, V domains shown)
VH: EVQLVESGGGLVQPGGSLRLSCAASGFTFSRYGMNWVRQAPGKGLEWVSAISGSGGSTYHADSVKGRFTISRDNSKNTLYLQMNSLRAADTAIYFCASYNWNDGVDVWGQGTTVTVS
VL: DIQMTQSPSSVSASIGDRVTITCRASQGISNWLAWYQQKPGKAPKLLIYGASSLQSGVSSRFSGSGSGTDFTLTIISLQPEDFATYYCQQANSFPYTFGQGTKLEIKR
Q: With B7 as the binder, how does the “IC50, Vero cell viability (neutralization), Trial 2, 0.1 pM Toxin B; antibody only partially protects (40-50%) at highest concentration” value [4] read?
A: 8 pM

Q: And the Kd [2]?
A: 0.677 nM

Q: What about the “T½” value [2] of the same binder?
A: 1.22 h

Q: And the koff [2]?
A: 0.000159 s⁻¹

Q: And the kon [2]?
A: 235000 M⁻¹ s⁻¹

B8: H1H3401P (antibody, V domains shown)
VH: QVQLVESGGGVVQPGRSLRLSCEASGFTFSSYGMHWVRQAPGNGLEWIAVISSDGNNKYYIESVKGRFTMSRDNSKNTLYLQLNSLRTEDTAVYYCATYNWNDDGDGVFDYWGQGTLVTVSS
VL: B7 VL with I15V, A51T, S59P, I76S, A91V, N92K
Q: What does the source list for B8?
A: Kd [2]: 0.574 nM; T½ [2]: 0.8 h; koff [2]: 0.000241 s⁻¹; kon [2]: 420000 M⁻¹ s⁻¹
